From the Immune Epitope Database (IEDB)
pKd: −log10 of the molar value.

Legend:
[1] = target: HLA-A*26:01; assay: IEDB peptide-MHC binding, purified MHC/competitive/fluorescence; filed as Kd, often an IC50 or EC50 that approximates it; ≥ and ≤ were set here for values at or beyond the usual limits of such assays
[2] = target: HLA-A*26:02; assay: as above; settings: source organism: Francisella tularensis subsp. tularensis FSC198
[3] = target: HLA-A*01:01; assay: as above; settings: source organism: Francisella tularensis subsp. tularensis FSC198
[4] = target: HLA-A*68:02; assay: IEDB peptide-MHC binding, purified MHC/direct/fluorescence; filed as Kd, often an IC50 or EC50 that approximates it; ≥ and ≤ were set here for values at or beyond the usual limits of such assays
[5] = target: HLA-B*07:02; assay: as above
[6] = target: HLA-B*08:01; assay: as above; settings: source organism: Francisella tularensis subsp. holarctica LVS
[7] = target: HLA-B*15:09; assay: as above; settings: source organism: Francisella tularensis subsp. tularensis FSC033
[8] = target: HLA-A*02:01; assay: as above
[9] = target: HLA-A*11:01; assay: as above
[10] = target: HLA-B*58:01; assay: as above
[11] = target: HLA-B*18:01; assay: as above
[12] = target: HLA-A*69:01; assay: as above
[13] = target: HLA-A*26:03; assay: as above
[14] = target: HLA-B*15:01; assay: as above
[15] = target: HLA-B*39:01; assay: as above; settings: source organism: Francisella tularensis subsp. tularensis FSC033
[16] = target: HLA-B*57:01; assay: as above
[17] = target: HLA-A*31:01; assay: as above
[18] = target: HLA-B*35:01; assay: IEDB peptide-MHC binding, purified MHC/competitive/fluorescence; filed as Kd, often an IC50 or EC50 that approximates it; ≥ and ≤ were set here for values at or beyond the usual limits of such assays; settings: source organism: Orthohantavirus khabarovskense
[19] = target: HLA-B*18:01; assay: as above; settings: source organism: Orthohantavirus khabarovskense
[20] = target: HLA-B*46:01; assay: as above; settings: source organism: Orthohantavirus khabarovskense
[21] = target: HLA-A*69:01; assay: as above; settings: source organism: Orthohantavirus khabarovskense
[22] = target: HLA-B*27:03; assay: as above; settings: source organism: Orthohantavirus khabarovskense
[23] = target: HLA-B*39:01; assay: as above; settings: source organism: Orthohantavirus khabarovskense
[24] = target: HLA-A*02:03; assay: IEDB peptide-MHC binding, purified MHC/direct/fluorescence; filed as Kd, often an IC50 or EC50 that approximates it; ≥ and ≤ were set here for values at or beyond the usual limits of such assays; settings: source organism: Choclo virus
[25] = target: HLA-C*12:03; assay: as above; settings: source organism: Orthohantavirus khabarovskense
[26] = target: HLA-A*03:01; assay: as above
[27] = target: HLA-A*23:01; assay: as above; settings: source organism: Choclo virus
[28] = target: HLA-A*02:12; assay: as above; settings: source organism: Choclo virus
[29] = target: HLA-A*02:19; assay: as above; settings: source organism: Choclo virus
[30] = target: HLA-C*08:02; assay: as above; settings: source organism: Orthohantavirus khabarovskense
[31] = target: HLA-A*24:03; assay: as above; settings: source organism: Choclo virus
[32] = target: HLA-C*03:03; assay: as above; settings: source organism: Orthohantavirus khabarovskense
[33] = target: HLA-A*01:01; assay: as above
[34] = target: HLA-B*27:05; assay: as above; settings: source organism: Marburg virus - Musoke, Kenya, 1980
[35] = target: HLA-B*46:01; assay: as above; settings: source organism: Marburg virus - Musoke, Kenya, 1980
[36] = target: HLA-B*48:01; assay: as above; settings: source organism: Marburg virus - Musoke, Kenya, 1980
[37] = target: HLA-B*40:01; assay: as above; settings: source organism: Marburg virus - Musoke, Kenya, 1980
[38] = target: HLA-B*15:17; assay: as above; settings: source organism: Marburg virus - Musoke, Kenya, 1980
[39] = target: HLA-B*08:02; assay: as above; settings: source organism: Orthomarburgvirus marburgense
[40] = target: HLA-A*68:23; assay: IEDB peptide-MHC binding, purified MHC/competitive/fluorescence; filed as Kd, often an IC50 or EC50 that approximates it; ≥ and ≤ were set here for values at or beyond the usual limits of such assays; settings: source organism: human gammaherpesvirus 4
[41] = target: HLA-B*83:01; assay: as above; settings: source organism: human gammaherpesvirus 4
[42] = target: HLA-B*45:06; assay: as above; settings: source organism: human gammaherpesvirus 4
[43] = target: HLA-C*14:02; assay: as above; settings: source organism: human gammaherpesvirus 4
[44] = target: HLA-B*15:42; assay: as above; settings: source organism: human gammaherpesvirus 4
[45] = source organism: Francisella tularensis subsp. holarctica LVS
[46] = source organism: Francisella tularensis subsp. tularensis FSC033
[47] = source organism: Orthohantavirus andesense
[48] = source organism: Marburg virus - Musoke, Kenya, 1980

Measured: pKd

EFKQILTDF
≤ 4.70: [1]; source organism: Francisella tularensis subsp. tularensis FSC198 | [3] | [4]; [45] | [5]; [45] | [7] | [8]; [45] | [9]; [45] | [10]; [45] | [12]; [45] | [13]; [46] | [14]; [45] | [15] | [16]; [45] | [17]; [45]
5.22: [6]
6.34: [2]
5.99: [11]; [46]

FSLPSSSSY
6.42: [33]; [47]
7.55: [32]
7.66: [10]; [47]
≤ 4.70: [1]; source organism: Orthohantavirus khabarovskense | [19] | [21] | [22] | [23] | [24] | [4]; source organism: Choclo virus | [26]; source organism: Choclo virus | [27] | [28] | [29] | [30] | [31]
7.37: [25]
≥ 10.00: [18]
7.15: [20]

KLDFIRNTK
6.22: [9]; [48]
5.67: [17]; [48]
≤ 4.70: [4]; [48] | [34] | [5]; [48] | [8]; [48] | [10]; [48] | [11]; [48] | [35] | [12]; [48] | [36] | [37] | [13]; source organism: Orthomarburgvirus marburgense | [33]; [48] | [38] | [14]; [48] | [16]; [48] | [39]
7.35: [26]; [48]

YTGAMTSKF
6.40: [43]
7.15: [40]
≤ 5.30: [41] | [42] | [44]
